Experimental data published in article PMC9657779, “Regulatory Role of Sphingosine-1-Phosphate and C16:0 Ceramide, in Immunogenic Cell Death of Colon Cancer Cells Induced by Bak/Bax-Activation” (Cancers, 2022).

Target: the molecule itself
Assay: non-reducing SDS-PAGE and Western blot; whole cell lysates of DLD-1 cells treated with ABT/AZD or MTX, with or without PF-543 (also thapsigargin, fumonisin B1; CerS6 knock-out cells), under non-reducing conditions, blotted for CRT; disulfide-linked dimer

B1: calreticulin (natural protein, human (endogenous in DLD-1), UniProt P27797 18-417, looked up)
chain: EPAVYFKEQFLDGDGWTSRWIESKHKSDFGKFVLSSGKFYGDEEKDKGLQTSQDARFYALSASFEPFSNKGQTLVVQFTVKHEQNIDCGGGYVKLFPNSLDQTDMHGDSEYNIMFGPDICGPGTKKVHVIFNYKGKNVLINKDIRCKDDEFTHLYTLIVRPDNTYEVKIDNSQVESGSLEDDWDFLPPKKIKDPDASKPEDWDERAKIDDPTDSKPEDWDKPEHIPDPDAKKPEDWDEEMDGEWEPPVIQNPEYKGEWKPRQIDNPDYKGTWIHPEIDNPEYSPDPSIYAYDNFGVLGLDLWQVKSGTIFDNFLITNDEAYAEEFGNETWGVTKAAEKQMKDKQDEEQRLKEEEEDKKRKEEEEAEDKEDDEDKDEDEEDEEDKEEDEEEDVPGQAKDEL
notes: calreticulin (CRT), the normally ER resident chaperone, endogenous in human colorectal DLD-1 cells; Seen as a disulfide-linked dimer on Western blots run under non-reducing conditions; also called CRT; ectoCRT; source: endogenous, DLD-1 whole cell lysate (RIPA)
stoichiometry N: 2
